Source: US10407488B2, “Therapy for treatment or prevention of conditions associated with bleeding or hypocoagulation” (THE REGENTS OF THE UNIVERSITY OF CALIFORNIA, priority 2013, dated 2019)
Several values for one entry are separate records, joined by “and”; a condition that tells them apart may be missing. Equal values may be shown once.

How the values were obtained:
[1] = tested on: thrombin generation in normal human plasma; test: Thrombin generation in NHP in the presence of rivaroxaban or apixaban; assay type: biochemical; conditions: dose titration in NHP
Procedure: Thrombin generation or Endogenous Thrombin Potential (ETP) assays were performed as described. Briefly, plasma samples supplemented with CTI, TF, PCPS were preincubated […] in the presence or absence of rivaroxaban, apixaban, Kcentra®, NovoSeven® or ^superFVa. Thrombin generation was initiated by addition of CaCl2 and Z-Gly-Gly-Arg-AMC in HBS/0.5% BSA. The final reaction mixture contained, 50% plasma, 0.725 μM CTI, 0.2 Pm TF, 4 μM PCPS vesicles, 0.5 mM Z-GGR-AMC, 7.6 mM CaCl2 in a total volume of 100 μl. Concentrations of rivaroxaban, apixaban, Kcentra®, NovoSeven® or ^superFVa are indicated in the result section and in the figure legends. Fluorescence was measured at excitation/emission wavelengths of […] using Gemini EM fluorescent plate reader (Molecular Devices). Fluorescence time course data were converted to Nm thrombin as described. ETP, defined as the area under the curve (AUC) and the peak height were determined using Origin software.

[2] = tested on: thrombin generation in normal human plasma with rhAPC; test: Thrombin generation in normal human plasma in the presence of rhAPC; assay type: biochemical; conditions: human plasma
Procedure: (§1) BU titer values for FVIII antibodies added to FVIII-deficient plasma were determined using a modified Nijmegen Bethesda assay (Barrow and Lollar; JTH 2006, 4:2223-2229). Briefly, antibody was serially diluted in HBS with 0.05% Tween 80 and mixed 1:1 with pooled normal plasma that was supplemented with 100 mM Imidazole, pH 7.0. Samples were incubated at 37° C. for 2 hours then assayed by aPTT with APTT XL reagent (Pacific Hemostasis). A standard curve was derived from a serial dilution of normal plasma into FVIII deficient plasma that was also mixed 1:1 with HBST and incubated at 37° C. for 2 hours. Percent FVIII activity was plotted versus mg/ml of antibody and residual activity of 50% was defined as 1 BU/ml. In addition, endogenous thrombin potential (ETP) assays were performed as described (3). Briefly FVa mutants or saline were added to human or murine plasma (George King Bio-Medical; mouse source, 50% v/v) supplemented with […] corn trypsin inhibitor (Haematologic Technologies), 10 mM CaCl2, 10 μM phospholipid vesicles (80% phosphatidylcholine, 20% phosphatidylserine, prepared as described (6), 0.2 pM soluble tissue factor (Innovin®, Dade Behring), and 0.4 mM Z-Gly-Gly-Arg-AMC (thrombin substrate, Bachem) in HBS. After mixing, 100 μL was transferred to a FluoroNunc microtiter plate at 37° C. to monitor fluorescence (excitation at 360 nm/emission at 460 nm; Gemini EM fluorescent plate reader (Molecular Devices)). Fluorescence time course data were converted to nM thrombin as described (7). ETP, defined as the area under the curve, was determined using Prism 5.04 (Graphpad).
(§2) APC-mediated inactivation of FVa was analyzed in ETP assays and aPTT clotting assays. FVa mutants were incubated with equal volumes of either recombinant human APC (Xigris®) or buffer in human and murine Balb/c plasma.

[3] = tested on: thrombin generation in murine Balb/c plasma with rhAPC; test: Thrombin generation in murine Balb/c plasma in the presence of rhAPC; assay type: biochemical, mouse
Procedure: as §1, §2

[4] = tested on: aPTT clotting time in human plasma; test: aPTT clotting assay in human plasma with rhAPC; assay type: biochemical; conditions: human plasma
Procedure: as §2
(§3) Plasma (50 μL) was mixed with 50 μL of a PTT reagent (APTT-XL, Pacific Hemostasis) and incubated at 37° C. for 3 minutes in the presence of FVa either with recombinant human APC or buffer. Following addition of 25 μL of 50 mM CaCl2 in HBS, 0.5% BSA, the clotting time was recorded using an ST4 coagulometer (Diagnostica Stago).

[5] = tested on: aPTT clotting time in murine plasma; test: aPTT clotting assay in murine plasma with rhAPC; assay type: biochemical, mouse
Procedure: as §2, §3

Balb/c mice [6] = test: Ex vivo whole blood aPTT after intravenous APC in Balb/c mice; parameters: species or system mouse; conditions: for mean whole blood aPTT clotting time: 2 minutes after intravenous APC 0.5 mg/kg, saline 30 sec
Procedure: Recombinant murine APC was administered intravenously to Balb/c mice by tail vein injection 2 minutes prior to retroorbital blood harvest in siliconized microcapillaries (75 μL) prefilled with 20 μL Sodium-Citrate (3.8%). Whole blood aPTT was performed immediately, whereby 50 μL of blood were mixed with 50 μL of aPTT reagent (APTT-XL, Pacific Hemostasis) and incubated at 37° C. for 3 minutes in the presence of FVa or buffer. Following addition of 25 μL of 130 mM CaCl2 in HBS, 0.5% BSA, the clotting time was recorded using an ST4 coagulometer (Diagnostica Stago).

Balb/c mice [7] = test: Tail clip bleeding assay, APC-induced bleeding in Balb/c mice; assay type: in vivo, mouse
Procedure: Mice were anesthetized with Isoflurane 3%, placed on temperature controlled heating pads (37° C.), and the distal portion of the tail was cut at 1.5 mm diameter after which the tail was immersed in a predefined volume of 37° C. saline (0.9% NaCl) for 20 minutes. To study effects on bleeding and clot stability, tubes were changed after 10 minutes to collect blood for the first and second 10 minutes separately. Blood loss was determined by the hemoglobin concentration in the saline solution after red cell lysis with 2% acetic acid and measured by absorbance at 490 nm. Using a hemoglobin standard derived from defined blood volumes, blood loss was calculated assuming a hematocrit of 46% and expressed in μL/g body weight. Groups of Balb/c mice were injected intravenously (tail vein) with equal volumes (200 μL) of ^superFVa or saline 2 minutes prior to intravenous injection of rhAPC (Xigris®). Immediately after APC injection tail cut was performed. All agents were diluted in sterile sodium chloride 0.9% for injection (Hospira Inc).

Balb/c mice [8] = test: Liver laceration bleeding assay, APC-induced bleeding in Balb/c mice; assay type: in vivo; conditions: for mortality rate: APC-induced bleeding after liver laceration
Procedure: Mice were anesthetized with Isofluorane 3% and the abdomen was opened by substernal blunt midline dissection. […] Immediately after laceration mice were positioned prone into a small weighing dish (8 cm diameter) filled with saline (37° C., 13 mL), transferred into the anesthesia chamber which rested on a heating pad (37° C.). Anesthesia was maintained at 3% Isofluorane and dishes were changed after 10 minutes to collect blood for the first and second 10 minutes separately. Blood loss was determined as described for the tail clip model. Groups of Balb/c mice were injected intravenously (tail vein) with equal volumes (200 μL) of ^superFVa or saline 2 minutes prior to intravenous injection of plasma-derived human APC, followed immediately by liver laceration. All agents were diluted in sterile sodium chloride 0.9% for injection (Hospira Inc).

[9] = plasma derived human APC 1.25 mg/kg
[10] = concentrations where ^superFVa restores

COc1ccc(-n2nc(C(N)=O)c3c2C(=O)N(c2ccc(N4CCCCC4=O)cc2)CC3)cc1 [apixaban, Apixaban]
concentration for optimal suppression of ETP [1]: 200 nM

O=C(NC[C@H]1CN(c2ccc(N3CCOCC3=O)cc2)C(=O)O1)c1ccc(Cl)s1 [rivaroxaban, Rivaroxaban]
concentration for optimal suppression of ETP [1]: 200 nM

APC: Activated Protein C; recombinant human (Xigris®, Eli Lilly) or plasma-derived human APC
optimal concentration for maximal suppression of ETP [2]: 5 nM | optimal concentration for maximal suppression of ETP [3]: 100 nM | optimal concentration for aPTT prolongation to ~100 seconds [4]: 10 nM | optimal concentration for aPTT prolongation to ~100 seconds [5]: 25 nM | mean whole blood aPTT clotting time (Balb/c mice [6]): 67 s | mean blood loss (Balb/c mice [7]; APC 1.25 mg/kg iv, combined 20 minutes after tail clip): 27 µL/g | mean blood loss (Balb/c mice [7]; APC 1.25 mg/kg, first 10 minutes after tail clip): 13.7 µL/g | mean blood loss (Balb/c mice [7]; APC 1.25 mg/kg, second 10 minutes after tail clip): 13.2 µL/g | mean blood loss (Balb/c mice [7]; APC, first 10 minutes after tail clip): 13.7 µL/g | dose that resulted in notable bleeding (Balb/c mice [7]; single intravenous administration, in vivo dose response): 1.25 mg/kg | mean blood loss (Balb/c mice [7]; wt APC 1.25 mg/kg iv, tail clip): 27 µL/g | mean blood loss (Balb/c mice [8]; APC 1.25 mg/kg iv, 20 minutes after liver laceration): 40 µL/g | mean blood loss (Balb/c mice [8]; APC 1.25 mg/kg iv, 20 minutes after liver laceration, listed as wt APC): 49 µL/g | mean blood loss (Balb/c mice [8]; APC 1.25 mg/kg, first 10 minutes after liver laceration): 35.1 µL/g | mortality rate (Balb/c mice [8]): 54% and ~50% | mortality rate (Balb/c mice [8]; listed as wt APC): ~40% | mice died during the 1st 10 minutes after injury (Balb/c mice [8]; [9]): Four of 13 | more mice died during the 2nd 10 minutes (Balb/c mice [8]; [9]): Three

FVa: wild-type recombinant human activated Factor V used as comparator [reference compound]
effect on thrombin generation suppressed by APC [2, 10]: did not show effects | effect on thrombin generation suppressed by APC [3, 10]: did not show effects | aPTT ([4]; 0.05 U/mL FVa variants, 10 nM APC, ~100 seconds without FVa): ~80 s | aPTT ([5]; 5 U/mL FVa variants, APC, ~100 seconds without FVa): ~70 s | effect on whole blood aPTT clotting times (Balb/c mice [6]; 1 nM added to whole blood after iv APC 0.5 mg/kg): failed to show a significant effect | mean whole blood aPTT (Balb/c mice [6]; FVa variant added ex vivo to whole blood drawn after APC 0.5 mg/kg injection): 50 s

B1: murine recombinant wt APC: Recombinant murine APC purified and prepared as previously described (protein)
chain: ANSFLEEMRPGSLERECMEEICDFEEAQEIFQNVEDTLAFWIKYFDGDQCSAPPLDHQCDSPCCGHGTCIDGIGSFSCSCDKGWEGKFCQQELRFQDCRVNNGGCLHYCLEESNGRRCACAPGYELADDHMRCKSTVNFPCGKLGRWIEKKRKILKRDTDLEDELEPDPRIVNGTLTKQGDSPWQAILLDSKKKLACGGVLIHTSWVLTAAHCVEGTKKLTVRLGEYDLRRRDHWELDLDIKEILVHPNYTRSSSDNDIALLRLAQPATLSKTIVPICLPNNGLAQELTQAGQETVVTGWGYQSDRIKDGRRNRTFILTFIRIPLVARNECVEVMKNVVSENMLCAGIIGDTRDACDGDSGGPMVVFFRGTWFLVGLVSWGEGCGHTNNYGIYTKVGSYLKWIHSYIGEKGVSLKSQKL
mean whole blood aPTT clotting time (Balb/c mice [6]): ~60 s
